Assay results published in the supplement of paper PMC9170038.

Tested on: MS2 coat protein
Assay: apparent KD of MS2 coat protein; designed switch direction (-1 OFF switch, 1 ON switch): -1; higher = weaker reporter binding
Procedure, shortened: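 The buffer was Tris-HCl pH 7.5 with KCl, MgCl2, BSA, DTT, tRNA and Tween-20. In it, SNAP-549-labelled MS2 coat protein was titrated in doubling steps from 0.7 or 1.5 nM to 3 µM over chip-bound RNA switches transcribed by stalled E. coli RNA polymerase on Illumina chips. Apparent KD is the per-design median over clusters of curve fits to normalised fluorescence.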

[1] = Eterna round: R95, input ligand: microRNA oligo, concentration not stated
[2] = input ligand: microRNA oligo, concentration not stated
[3] = Eterna round: R95, input ligand: FMN 200 uM
[4] = Eterna round: R95, input ligand: none

Sequence	apparent KD of MS2 coat protein [1] [nM]	apparent KD of MS2 coat protein (input ligand: FMN 200 uM) [nM]	apparent KD of MS2 coat protein (input ligand: none) [nM]	also measured
GGAUCGAGUGUGAGGAUAUACCACUGGAUACAGUGGUAGAAGGCACAUGAGGAUCACCCAUGUCUCUACGAUCC [Fiskers BMX 4 - 44] (puzzle: Brourd's mod of Exclusion 4)	16.3			
AGUUGGCGAGGAUAUACAUGAGGAUCACCCAUGUGAGAGAUACUAGUGAGGUCGAUUGGUAGAAGGCGCUGACA [Mat X3R4 m19] (Eterna round: R97, puzzle: Exclusion 3)		70.8	106	
GGGAGCAGACGGAGAUCCAACAUGAGGAUCACCCAUGUCUCCCAAGCUUUUUGCUUGUCUUAUCCUCCUCUGUUUCC [Design #9] (Eterna round: R97, puzzle: Sensor, turn-off variant 1)		17.2	17.6	
UUUUUGUCAGGAUAUGAGUAGUAGAACAAUAGUACUACUACUCAGAAGGGACAUGAGGAUCACCCAUGUUCCUC [Fiskers Ex 4 Super stable 44 mod 18] (puzzle: Exclusion 4)	14.4			
AGCCACAGAGGAUAUACAUACAUCCAGUAGCGGAUAUCGCUACAUGAGGAUCACCCAUGUAGAAGGCUGUGGCA [Omei Ex2 BD B22] (Eterna round: R97, puzzle: Exclusion 2)		148	611	
CCAGGCUGUGUGAGGAUAUGCUGGUCCUUGGAUCAGCAGAAGGCACAUGAGGAUCACCCAUGUGAAAAGCUUGG [Mat - Exclusion 4 - JL Mod - D91] (puzzle: Brourd's mod of Exclusion 4)	16.2			
GGCGCCUCAGGAUAUCAGUCUGGAUCAGAAUAGAUCCUGACUGAGAAGGGACAUGAGGAUCACCCAUGUUCGCC [Eli 4x 4.29] (Eterna round: R97, puzzle: Exclusion 4)		20.8	18.9	
UUUGUACAUGAGGAUCACCCAUGUCAGGAUAUGUCAUCGCCGUUUCCCAGCCGGCGUCACAGAAGGGACAUGCA [EX1 C.5] (Eterna round: R97, puzzle: Exclusion 1)		56.6	26.2	
CCGACGUGAGGAUAUUAGAACGAGCAGACCUGAGCUCGUUCUGAGAAGGCACAUGAGGAUCACCCAUGUGAGAA [Eternabot (Original) Solution 50] (Eterna round: R97, puzzle: Exclusion 4)		352	31.4	
UUUUAACAUGAGGAUCACCCAUGUGAGGAUAUCGAAAUUUAUAUUAAUAUUUAUAUUUCGAGAAGGCACAUUUU [JMF 57] (puzzle: Exclusion 1)	153			
GAGUGUUGAGGAUAUACAUGAGGAUCACCCAUGUGCUUCAGCUAGGAGACUAGCAUUGGUAGAAGGCAGUACUC [Mod of lroppy 9 - Jieux - Exclusion 3] (Eterna round: R97, puzzle: Exclusion 3)		48.3	37.1	
GUCCGGCGUGUAGGAUAUGGUUCCGUUUCGGUUCCAGAAGGACAUGAGGAUCACCCAUGUGCCUGUCGUCGGUCGUCACCGGGC [salish99_ExNG1_r04_220] (Eterna round: R96, puzzle: Exclusion NG 1)		19.5	14.8	apparent KD of MS2 coat protein [2]: 10.3 nM
UUUUAGGUAGGAUAUACAUUUUUUUUAUUAUCCUCAUUAUUACAUGAGGAUCACCCAUGUAGAAGGACCAUUUU [My Design] (puzzle: Exclusion 2)	181			
UUGUUGUAUGUAGGAUAUGCAUAUUAUUAUUAUGCAGAAGGACAUGAGGAUCACCCAUGUGUAUUAUUAUUAUAUAUUAUAUAU [Title] (Eterna round: R96, puzzle: Exclusion NG 1)				apparent KD of MS2 coat protein [2]: 20 nM
UUUGCAAGCUUUUGAUCCCACAUGAGGAUCACCCAUGUUGCUGCCGUGAGGUAGCAUUUAACAAAUGCUCGUCUUAU [JL TOV1 3.53] (Eterna round: R97, puzzle: Sensor, turn-off variant 1)		555	762	
CAGCUGAAUGUCAGGAUAUCUAGAGCGAUAGCUCUAGAGAAGGGACAUGAGGAUCACCCAUGUCACUCCAGCUG [BmEx4/3-B4] (Eterna round: R97, puzzle: Brourd's mod of Exclusion 4)		29.5	18.2	
UUAGUGUUAGGAUAUAAUCAUAUAAGCUGUAAGGUGUAUGAUUAGAAGGGACAUGAGGAUCACCCAUGUCGUGA [Eternabot (L1) Solution 94] (Eterna round: R97, puzzle: Exclusion 4)		23.1	20.1	
UUAAAUCAUGUAGGAUAUGCGUGGCGAAGCUAUGCAGAAGGACAUGAGGAUCACCCAUGUUCUAGCGUCUGCGUACAGAUGCUA [Mat - Exclusion NG 1 - Mod of JL - D76] (Eterna round: R96, puzzle: Exclusion NG 1)		359	38.3	apparent KD of MS2 coat protein [2]: 26.9 nM
CUAUAGUCAGGAUAUCUAAACAGGCCGAGCGUUCGCAGUCGAGAGAAGGGACAUGAGGAUCACCCAUGUCCUCC [Eternabot (L1) Solution 6] (Eterna round: R97, puzzle: Exclusion 4)		15.2	15.6	
GCGAAAGCAAGCAAGUGAAACAUGAGGAUCACCCAUGUACUCAUUUGCUCGUCUUGUAAGCUAUGCGAAAGCAUAGC [Mat - Sensor v3 - turn-off var 1 - Eli Mod - D51] (puzzle: Sensor v3, turn-off variant 1)	9.67			apparent KD of MS2 coat protein [3]: 10.7 nM; apparent KD of MS2 coat protein [4]: 9.72 nM
AGUCUGCGAGGAUAUACAUGAGGAUCACCCAUGUGCGAGAAACUAGUGAGGUCGAUUGGUAGAAGGCGCGGACA [Mat - Exclusion 3 - Mod of JL D87] (puzzle: Exclusion 3)	200			apparent KD of MS2 coat protein [3]: 34.7 nM; apparent KD of MS2 coat protein [4]: 356 nM
AGAAAAGACCUAGGAUAUACCCAGUGGGUAGAGGGUCAUAAUAAUAAAACAUGAGGAUCACCCAUGUAGAAGGAGGGAAAGAAG [Biriusdibe] (Eterna round: R96, puzzle: Exclusion NG 2)		58.1	63.2	apparent KD of MS2 coat protein [2]: 47.1 nM
UCACGGGAUUGAGGAUAUAUAUUAAUUUUUACAAUAGAAGGCAAAUUGUUAGUUUUUUCACUUUACAUGAGGAUCACCCAUGUU [JR_ExcBG1_Sub080] (Eterna round: R96, puzzle: Exclusion NG 1)				apparent KD of MS2 coat protein [2]: 19.6 nM
AAAAGAACAUGAGGAUCACCCAUGUGAACCUUCGUUCGACCUCAGGAUAUCCGCCACCGUCCGCAGGAGAAGGGAGGUAAAAUA [Quraa] (Eterna round: R96, puzzle: Exclusion NG 3)		169	58.8	apparent KD of MS2 coat protein [2]: 45.6 nM
UCAUGUUUAGAGGAUAUGAUUACUUUGGAGUAAUCAGAAGGCUAGACAUGAGGAUCACCCAUGUCAUAACAUGA [Exclusion 6 - B - 15:c] (puzzle: Exclusion 6)	71.5			apparent KD of MS2 coat protein [3]: 75.5 nM; apparent KD of MS2 coat protein [4]: 61.3 nM
GGGUACAAGCUAAGAUCCUACAUGAGGAUCACCCAUGUGGUCCGGUGACGUGAGUCACCGGACUUAGCUCGUCUUGU [salish99_S_TOV1_R5_003] (Eterna round: R97, puzzle: Sensor, turn-off variant 1)		59.3	61.3	
